B1: Azoarcus group I ribozyme (parent)
chain: GUGCCUUGCGCCGGGAAACCACGCAAGGGAUGGUGUCAAAUUCGGCGAAACCUAAGCGCCCGCCCGGGCGUAUGGCAACGCCGAGCCAAGCUUCGGCGCCUGCGCCGAUGAAGGUGUAGAGACUAGACGGCACCCACCUAAGGCAAACGCUAUGGUGAAGGCAUAGUCCAGGGAGUGGCGAAAGUCACACAAACCGG

From the RNAGym collection of RNA variant scans (doi:10.1093/molbev/msab373) come the findings set out here.

The variants in this series derive from B1. The experiment in a line: reverse-splicing fitness (ratio to wild type); higher = more active; in vitro selection; Mg2+ level not given. In short, it runs like this:
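An in vitro group I ribozyme library with randomized positions was T7-transcribed and gel-purified. In triplicate, 10 pmol RNA in EPPS pH 7.5 was reacted with 50 pmoles of a 30-nt RNA substrate for 1 h at 37 °C across several added MgCl2 levels (1–48 mM), then stopped with EDTA. Products were reverse transcribed from a substrate-complementary primer, PCR-amplified and sequenced (HiSeq 4000). Fitness is a variant's read proportion after selection over that before, normalised to wild type.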
Turning to C82G A111G A145C C150G C169U U176A, the reverse-splicing fitness stood at 0.00922.

Take C82G A111G A145C C150G C169U U176G: the reverse-splicing fitness amounted to 0.00582.

On to C82G A111G A145C C150G C169U U176C, for which the reverse-splicing fitness was found to be 0.013.

On to C82G A111G A145U C150A C169U U176G, for which the reverse-splicing fitness is 0.00554.

Turning to C82G A111G A145U C150A C169U U176C, the reverse-splicing fitness was found to be 0.0148.

For C82G A111G A145U C150A C169U U176A, the reverse-splicing fitness is 0.0141.

As to C82G A111G A120U C150G C169A U176A, the reverse-splicing fitness amounted to 0.00788.

Take C82G A111G A120U C150G C169A U176G: the reverse-splicing fitness turned out to be 0.00267.

For the variant C82G A111G A120U C150G C169A U176C, the reverse-splicing fitness was 0.00831.

For the variant C82G A111G A145G C150A C169U U176C, the reverse-splicing fitness was found to be 0.0162.

C82G A111G A145G C150A C169U U176A: the reverse-splicing fitness is 0.0155.

For the variant C82G A111G A145G C150A C169U U176G, the reverse-splicing fitness is 0.00674.

For the variant C82G A111G A145C C150G C169G U176C, the reverse-splicing fitness was found to be 0.00856.

Take C82G A111G A145C C150G C169G U176A: the reverse-splicing fitness amounted to 0.0101.

C82G A111G A145C C150G C169G U176G: the reverse-splicing fitness was 0.0057.

Regarding C82G A111G A120U C150A C169U U176A, the reverse-splicing fitness worked out at 0.00523.

For C82G A111G A120U C150A C169U U176C, the reverse-splicing fitness amounted to 0.00456.

With C82G A111G A120U C150A C169U U176G, the reverse-splicing fitness stood at 0.00229.

Regarding C82G A111G A120U C150G C169U, the reverse-splicing fitness came out at 0.0064.

Take C82G A111G A120U C150G C169A: the reverse-splicing fitness came out at 0.00761.

As for C82G A111G A120U C150G C169G, the reverse-splicing fitness came out at 0.00678.

For the variant C82G A111G A120U C150A U176A, the reverse-splicing fitness worked out at 0.0074.

On to C82G A111G A120U C150A U176G, for which the reverse-splicing fitness is 0.00368.

C82G A111G A120U C150A U176C: the reverse-splicing fitness worked out at 0.00806.

C82G A111G A145C U176G: the reverse-splicing fitness is 0.116.

With C82G A111G A145C U176A, the reverse-splicing fitness came out at 0.267.

As to C82G A111G A145C U176C, the reverse-splicing fitness came to 0.258.

Take C82G A111G A145G C169A: the reverse-splicing fitness stood at 0.00875.

In the case of C82G A111G A145G C169U, the reverse-splicing fitness was 0.0129.

As for C82G A111G A145G C169G, the reverse-splicing fitness turned out to be 0.0101.

With C82G A111G A120U C169G U176C, the reverse-splicing fitness came to 0.00434.

For C82G A111G A120U C169G U176A, the reverse-splicing fitness amounted to 0.00289.

With C82G A111G A120U C169G U176G, the reverse-splicing fitness worked out at 0.00169.

For C82G A111G A145C C150G U176A, the reverse-splicing fitness worked out at 0.0197.

Take C82G A111G A145C C150G U176C: the reverse-splicing fitness worked out at 0.0294.

In the case of C82G A111G A145C C150G U176G, the reverse-splicing fitness turned out to be 0.00683.

As for C82G A111G A120U A145U C150G C169G, the reverse-splicing fitness came out at 0.003.

For the variant C82G A111G A120U A145U C150G C169A, the reverse-splicing fitness is 0.00331.

As to C82G A111G A120U A145U C150G C169U, the reverse-splicing fitness was 0.00254.

Consider C82G A111G A120U C150U C169U, for which the reverse-splicing fitness came to 0.00493.

As for C82G A111G A120U C150U C169A, the reverse-splicing fitness amounted to 0.00504.

In the case of C82G A111G A120U C150U C169G, the reverse-splicing fitness came out at 0.00538.

On to C82G A111G A145U C150G C169A U176C, for which the reverse-splicing fitness was 0.0155.

Take C82G A111G A145U C150G C169A U176G: the reverse-splicing fitness was 0.00637.

As to C82G A111G A145U C150G C169A U176A, the reverse-splicing fitness was 0.0126.

Turning to C82G A111G A120U C150G U176C, the reverse-splicing fitness came to 0.00821.

In the case of C82G A111G A120U C150G U176G, the reverse-splicing fitness turned out to be 0.00299.

Regarding C82G A111G A120U C150G U176A, the reverse-splicing fitness stood at 0.00529.

As for C82G A111G A120U C150U C169G U176C, the reverse-splicing fitness was determined as 0.00412.

For C82G A111G A120U C150U C169G U176G, the reverse-splicing fitness was 0.0024.

In the case of C82G A111G A120U C150U C169G U176A, the reverse-splicing fitness came out at 0.00758.

With C82G A111G A120U C150U U176G, the reverse-splicing fitness stood at 0.00497.

C82G A111G A120U C150U U176C: the reverse-splicing fitness was 0.0164.

Turning to C82G A111G A120U C150U U176A, the reverse-splicing fitness amounted to 0.0115.

Regarding C82G A111G A145C C150U U176C, the reverse-splicing fitness was 0.0592.

As to C82G A111G A145C C150U U176G, the reverse-splicing fitness is 0.0267.

C82G A111G A145C C150U U176A: the reverse-splicing fitness was found to be 0.0557.

On to C82G A111G A120U A145U C150U C169A U176A, for which the reverse-splicing fitness is 0.00294.

In the case of C82G A111G A120U A145U C150U C169A U176G, the reverse-splicing fitness is 0.00186.

For C82G A111G A120U A145U C150U C169A U176C, the reverse-splicing fitness worked out at 0.00239.

On to C82G A111G A120U A145G C150U C169G U176C, for which the reverse-splicing fitness is 0.00595.

As to C82G A111G A120U A145G C150U C169G U176A, the reverse-splicing fitness came to 0.0105.

On to C82G A111G A120U A145G C150U C169G U176G, for which the reverse-splicing fitness was found to be 0.00241.

With C82G A111G A145G C150U C169A U176C, the reverse-splicing fitness amounted to 0.0189.

Take C82G A111G A145G C150U C169A U176G: the reverse-splicing fitness worked out at 0.00698.

As to C82G A111G A145G C150U C169A U176A, the reverse-splicing fitness amounted to 0.0171.

Regarding C82G A111G A120U A145U C150U C169G U176A, the reverse-splicing fitness turned out to be 0.0031.

Take C82G A111G A120U A145U C150U C169G U176G: the reverse-splicing fitness stood at 0.00218.

C82G A111G A120U A145U C150U C169G U176C: the reverse-splicing fitness came to 0.00343.

C82G A111G A120U A145U C169G: the reverse-splicing fitness worked out at 0.00363.

For the variant C82G A111G A120U A145U C169A, the reverse-splicing fitness is 0.00239.

In the case of C82G A111G A120U A145U C169U, the reverse-splicing fitness is 0.00451.

As for C82G A111G A120U A145G C150G C169G U176A, the reverse-splicing fitness is 0.00894.

C82G A111G A120U A145G C150G C169G U176G: the reverse-splicing fitness is 0.00372.

As to C82G A111G A120U A145G C150G C169G U176C, the reverse-splicing fitness turned out to be 0.00607.

On to C82G A111G A145C C169A U176G, for which the reverse-splicing fitness was 0.00537.

With C82G A111G A145C C169A U176A, the reverse-splicing fitness is 0.0111.

Turning to C82G A111G A145C C169A U176C, the reverse-splicing fitness amounted to 0.00787.

Regarding C82G A111G A145G C150U C169U, the reverse-splicing fitness came out at 0.0137.

With C82G A111G A145G C150U C169A, the reverse-splicing fitness is 0.0104.

For the variant C82G A111G A145G C150U C169G, the reverse-splicing fitness turned out to be 0.0106.

For C82G A111G A145U C150G C169G U176A, the reverse-splicing fitness worked out at 0.00911.

As to C82G A111G A145U C150G C169G U176G, the reverse-splicing fitness is 0.00579.

Take C82G A111G A145U C150G C169G U176C: the reverse-splicing fitness was 0.00969.
